In patent publication US20220332804A1 (CSL INNOVATION, published 2022):

Experiments:
Experiment in all cases: SPR, KD relative to WT C2;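 note: biacore SPR at 37 °C, anti-C2 mAbs captured via immobilised goat anti-human IgG, C2 alanine or serine surface mutants as analytes, 1:1 model fitted, double-referenced sensograms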
human C2 E686A = molecular target: T1, human C2 E686A (human, UniProt P06681 21-752)
T1 sequence: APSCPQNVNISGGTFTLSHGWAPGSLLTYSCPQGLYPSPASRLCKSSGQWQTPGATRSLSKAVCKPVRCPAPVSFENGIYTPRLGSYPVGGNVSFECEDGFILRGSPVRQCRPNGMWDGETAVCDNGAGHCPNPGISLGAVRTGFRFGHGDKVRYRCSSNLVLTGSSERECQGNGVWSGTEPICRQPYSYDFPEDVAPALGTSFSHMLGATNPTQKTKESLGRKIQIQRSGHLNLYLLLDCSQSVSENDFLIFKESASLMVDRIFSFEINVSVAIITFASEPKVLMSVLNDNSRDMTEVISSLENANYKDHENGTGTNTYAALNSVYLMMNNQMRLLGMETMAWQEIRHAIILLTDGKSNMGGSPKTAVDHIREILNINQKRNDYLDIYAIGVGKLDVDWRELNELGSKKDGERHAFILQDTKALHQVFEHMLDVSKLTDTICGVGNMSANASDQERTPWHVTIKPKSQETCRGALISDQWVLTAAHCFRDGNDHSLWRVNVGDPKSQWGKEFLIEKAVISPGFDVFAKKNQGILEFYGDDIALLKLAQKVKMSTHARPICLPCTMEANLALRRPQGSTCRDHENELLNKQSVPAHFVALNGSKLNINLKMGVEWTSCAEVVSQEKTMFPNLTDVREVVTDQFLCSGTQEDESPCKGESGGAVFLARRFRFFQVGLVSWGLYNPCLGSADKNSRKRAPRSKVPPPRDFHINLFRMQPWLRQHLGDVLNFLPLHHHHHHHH

human C2 R719A = molecular target: T2, human C2 R719A (human, UniProt P06681 21-752)
T2 sequence: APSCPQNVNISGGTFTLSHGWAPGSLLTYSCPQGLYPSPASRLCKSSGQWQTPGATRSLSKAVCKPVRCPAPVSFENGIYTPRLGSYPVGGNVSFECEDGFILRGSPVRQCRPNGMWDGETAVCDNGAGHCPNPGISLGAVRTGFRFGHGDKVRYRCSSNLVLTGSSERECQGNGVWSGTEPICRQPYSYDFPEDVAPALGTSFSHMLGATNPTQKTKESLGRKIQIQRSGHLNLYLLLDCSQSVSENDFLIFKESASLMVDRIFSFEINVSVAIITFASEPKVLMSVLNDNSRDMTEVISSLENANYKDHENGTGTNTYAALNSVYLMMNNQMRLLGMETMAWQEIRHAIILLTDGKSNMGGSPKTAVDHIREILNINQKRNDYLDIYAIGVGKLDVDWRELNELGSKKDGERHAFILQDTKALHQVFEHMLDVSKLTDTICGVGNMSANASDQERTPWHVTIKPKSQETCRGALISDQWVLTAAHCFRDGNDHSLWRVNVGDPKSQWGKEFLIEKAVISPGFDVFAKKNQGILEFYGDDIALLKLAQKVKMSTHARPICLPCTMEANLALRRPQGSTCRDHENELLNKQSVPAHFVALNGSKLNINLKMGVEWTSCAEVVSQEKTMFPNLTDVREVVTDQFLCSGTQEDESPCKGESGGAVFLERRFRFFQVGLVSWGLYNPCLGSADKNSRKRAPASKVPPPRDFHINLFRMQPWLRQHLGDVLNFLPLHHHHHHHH

human C2 K531A = molecular target: T3, human C2 K531A (human, UniProt P06681 21-752)
T3 sequence: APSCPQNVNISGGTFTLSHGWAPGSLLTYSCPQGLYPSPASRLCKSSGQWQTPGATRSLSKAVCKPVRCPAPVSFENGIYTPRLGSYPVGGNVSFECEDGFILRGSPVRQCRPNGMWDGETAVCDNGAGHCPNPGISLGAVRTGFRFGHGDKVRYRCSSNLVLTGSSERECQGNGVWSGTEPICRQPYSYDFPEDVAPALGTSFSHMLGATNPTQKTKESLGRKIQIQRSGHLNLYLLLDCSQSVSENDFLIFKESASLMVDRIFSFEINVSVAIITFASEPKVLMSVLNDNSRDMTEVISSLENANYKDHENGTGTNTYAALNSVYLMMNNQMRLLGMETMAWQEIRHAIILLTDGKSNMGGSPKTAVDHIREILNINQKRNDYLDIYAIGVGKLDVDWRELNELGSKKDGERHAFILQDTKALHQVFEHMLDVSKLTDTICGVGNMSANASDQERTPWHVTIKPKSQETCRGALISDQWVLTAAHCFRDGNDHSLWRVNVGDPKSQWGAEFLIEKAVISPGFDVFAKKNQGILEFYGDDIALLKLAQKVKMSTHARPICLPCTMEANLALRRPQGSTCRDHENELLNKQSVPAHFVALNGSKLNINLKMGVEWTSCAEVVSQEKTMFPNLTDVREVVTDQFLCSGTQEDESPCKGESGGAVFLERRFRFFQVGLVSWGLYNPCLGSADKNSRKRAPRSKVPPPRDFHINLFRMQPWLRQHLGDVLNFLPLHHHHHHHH

human C2 S469A = molecular target: T4, human C2 S469A (human, UniProt P06681 21-752)
T4 sequence: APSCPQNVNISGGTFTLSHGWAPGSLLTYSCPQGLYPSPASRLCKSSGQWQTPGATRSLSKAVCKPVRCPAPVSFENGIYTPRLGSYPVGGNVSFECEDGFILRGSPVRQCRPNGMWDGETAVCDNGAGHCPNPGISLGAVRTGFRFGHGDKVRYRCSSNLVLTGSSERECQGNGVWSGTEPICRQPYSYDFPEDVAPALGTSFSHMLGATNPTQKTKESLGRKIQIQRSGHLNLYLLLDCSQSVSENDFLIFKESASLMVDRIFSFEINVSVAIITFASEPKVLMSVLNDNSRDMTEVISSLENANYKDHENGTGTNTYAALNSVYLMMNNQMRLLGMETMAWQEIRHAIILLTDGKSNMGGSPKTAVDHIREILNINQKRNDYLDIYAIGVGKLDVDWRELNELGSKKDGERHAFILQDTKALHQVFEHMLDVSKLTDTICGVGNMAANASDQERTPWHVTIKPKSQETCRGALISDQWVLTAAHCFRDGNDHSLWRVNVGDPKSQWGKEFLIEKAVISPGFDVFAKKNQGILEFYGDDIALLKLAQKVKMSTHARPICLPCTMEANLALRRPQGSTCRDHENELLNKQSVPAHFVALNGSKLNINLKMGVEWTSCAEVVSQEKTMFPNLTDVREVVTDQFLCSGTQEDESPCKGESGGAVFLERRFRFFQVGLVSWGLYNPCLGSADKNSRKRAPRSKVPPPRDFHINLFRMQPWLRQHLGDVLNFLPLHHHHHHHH

B1: RF16-226 (antibody, human IgG4 S228P, lambda)
heavy: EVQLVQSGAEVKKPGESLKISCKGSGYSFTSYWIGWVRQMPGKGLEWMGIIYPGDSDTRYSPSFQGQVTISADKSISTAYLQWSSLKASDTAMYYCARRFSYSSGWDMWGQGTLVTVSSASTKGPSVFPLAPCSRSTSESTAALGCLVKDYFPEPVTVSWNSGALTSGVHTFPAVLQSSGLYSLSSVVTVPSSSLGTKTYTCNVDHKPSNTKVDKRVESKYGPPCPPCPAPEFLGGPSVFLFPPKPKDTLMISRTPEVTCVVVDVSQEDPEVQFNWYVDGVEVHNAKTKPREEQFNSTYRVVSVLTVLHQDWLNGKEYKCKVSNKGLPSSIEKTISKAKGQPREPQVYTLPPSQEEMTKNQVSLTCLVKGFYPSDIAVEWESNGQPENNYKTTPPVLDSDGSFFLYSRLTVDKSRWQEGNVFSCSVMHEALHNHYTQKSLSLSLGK
light: SYELTQPPSVSVSPGQTARITCSGDALTSKYVAWYQQKSGLAPLLVIYEDTRRPSGIPAKFSGSSSGSVATLTISGAHGDDEADYYCYSTDASGHQRVFGGGTKLTVLSQPKAAPSVTLFPPSSEELQANKATLVCLISDFYPGAVTVAWKADGSPVKAGVETTKPSKQSNNKYAASSYLSLTPEQWKSHRSYSCQVTHEGSTVEKTVAPTECS
notes: pH-dependent anti-C2 antibody from a phage display library; also called WT
Fold diff (human C2 E686A): 5 fold | Fold diff (human C2 R719A): 1 fold | Fold diff (human C2 K531A): 1 fold | Fold diff (human C2 S469A): 3 fold
